Results published in patent US20230374088A1 (GENERAL HOSPITAL, published 2023).

Assays:
FLAG-Kif7 (544-1343aa) = target: T1, FLAG-Kif7 (544-1343aa) (human, UniProt Q2M1P5 544-1343); test: pull-down on anti-FLAG beads, anti-c-myc blot, Expi293F cells
T1 construct: Expressed in Expi293F cells for the pull-down; also called C-terminal half of Kif7; not shown: FLAG tag from pCMV-BICEP-4 (MCS1), N-terminal by the name
T1 sequence: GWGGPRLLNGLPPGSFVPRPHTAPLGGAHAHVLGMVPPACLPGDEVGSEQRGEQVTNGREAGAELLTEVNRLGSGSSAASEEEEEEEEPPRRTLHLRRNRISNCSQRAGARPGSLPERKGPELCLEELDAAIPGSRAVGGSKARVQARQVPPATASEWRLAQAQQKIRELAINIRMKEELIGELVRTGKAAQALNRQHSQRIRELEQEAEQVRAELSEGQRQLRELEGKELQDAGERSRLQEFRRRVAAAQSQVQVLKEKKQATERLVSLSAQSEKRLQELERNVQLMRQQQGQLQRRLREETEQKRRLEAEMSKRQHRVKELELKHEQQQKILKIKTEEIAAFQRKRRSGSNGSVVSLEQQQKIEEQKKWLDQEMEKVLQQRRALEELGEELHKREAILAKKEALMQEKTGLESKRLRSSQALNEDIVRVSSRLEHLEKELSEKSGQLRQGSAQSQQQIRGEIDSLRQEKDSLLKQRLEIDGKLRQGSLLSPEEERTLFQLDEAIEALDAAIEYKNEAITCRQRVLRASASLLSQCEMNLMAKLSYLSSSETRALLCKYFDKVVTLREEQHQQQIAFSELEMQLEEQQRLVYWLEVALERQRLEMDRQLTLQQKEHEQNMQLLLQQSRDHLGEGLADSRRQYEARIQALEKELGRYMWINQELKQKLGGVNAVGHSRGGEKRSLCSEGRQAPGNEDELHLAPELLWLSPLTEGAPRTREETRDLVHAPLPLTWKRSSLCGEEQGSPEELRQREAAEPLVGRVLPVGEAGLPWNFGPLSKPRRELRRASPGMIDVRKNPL
From the text: (§1) Immunoprecipitation (IP) using anti-FLAG magnetic beads. Input (cell lysate), FT (flow through), wash and beads samples were immunoblotted (IB) with anti c-Myc antibody to detect Gli2. […] The blots are representative images of a minimum of three repeats. Gli2-ZF mutants are as follows: ZF2-mut (H493A, R496A), ZF3-mut (H503A, R516A, K521A), ZF4-mut (R550A, K552A, R556A). Kif7-CC mutants are as follows: S1-mut (E500A, E501A, E502A, D505A), S2-mut (E511A, E515A), S3-mut1 (E526A, E529A) and S3-mut2 (E530A, R535A).
(§2) To narrow down the residues that participate in binding, we analyzed the model of the Kif7-SCC:Gli2-ZF complex using PDBsum server (De Beer et al., Nucleic acids research, 42, D292-D296, 2014). We performed alanine scanning mutagenesis of the charged residues on Gli2-ZF that came up as part of the binding interface in the PDBsum analysis and analyzed their binding with pull-down assay (FIG. 3D). […] We systematically mutated the residues to alanine and performed the pull-down assay with Gli2-ZF.

c-Myc-Gli2 (595-1568aa) = target: T2, c-Myc-Gli2 (595-1568aa) (human, UniProt P10070 595-1568); test: as above
T2 construct: the end of the construct is meant as the C-terminus of the protein; also called C-terminal half of Gli2; not shown: c-myc tag from pCMV-BICEP-4 (MCS2), N-terminal by the name
T2 sequence (looked up): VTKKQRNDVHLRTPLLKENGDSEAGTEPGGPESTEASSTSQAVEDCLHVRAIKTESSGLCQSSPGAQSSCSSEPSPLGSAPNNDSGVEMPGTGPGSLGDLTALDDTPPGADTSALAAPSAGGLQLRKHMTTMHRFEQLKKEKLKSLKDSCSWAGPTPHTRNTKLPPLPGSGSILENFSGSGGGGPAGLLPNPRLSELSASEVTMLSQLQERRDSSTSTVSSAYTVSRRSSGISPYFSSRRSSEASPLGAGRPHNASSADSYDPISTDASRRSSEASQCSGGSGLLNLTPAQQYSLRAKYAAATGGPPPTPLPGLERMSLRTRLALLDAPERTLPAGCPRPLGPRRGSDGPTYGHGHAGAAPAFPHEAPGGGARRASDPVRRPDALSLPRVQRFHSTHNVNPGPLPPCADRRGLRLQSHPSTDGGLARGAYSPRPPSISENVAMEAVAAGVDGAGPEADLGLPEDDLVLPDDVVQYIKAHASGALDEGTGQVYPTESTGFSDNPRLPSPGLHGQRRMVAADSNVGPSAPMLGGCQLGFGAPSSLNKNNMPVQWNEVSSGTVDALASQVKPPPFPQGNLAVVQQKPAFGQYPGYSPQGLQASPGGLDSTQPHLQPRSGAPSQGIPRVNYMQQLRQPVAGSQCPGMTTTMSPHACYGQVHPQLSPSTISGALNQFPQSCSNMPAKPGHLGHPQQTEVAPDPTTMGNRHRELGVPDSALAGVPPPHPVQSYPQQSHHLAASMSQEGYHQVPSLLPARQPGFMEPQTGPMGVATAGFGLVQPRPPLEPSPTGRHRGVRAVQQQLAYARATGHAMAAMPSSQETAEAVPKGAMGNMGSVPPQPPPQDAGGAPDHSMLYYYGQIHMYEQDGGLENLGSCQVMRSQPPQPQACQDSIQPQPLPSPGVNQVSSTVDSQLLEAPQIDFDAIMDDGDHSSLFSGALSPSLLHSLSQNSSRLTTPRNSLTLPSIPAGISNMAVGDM
From the text: as §1, §2

Kif7-DM (1-543aa) = target: T3, Kif7-DM (1-543aa) (human, UniProt Q2M1P5 1-543); test: cryo-EM of microtubule-bound Kif7-DM with AMP-PNP, 3.9 Å
T3 construct: As used for cryo-EM, without GFP; Expressed with a TEV-cleavable N-terminal 6xHis-SUMOstar tag; also called Kif7 dimer; dimeric Kif7
T3 sequence: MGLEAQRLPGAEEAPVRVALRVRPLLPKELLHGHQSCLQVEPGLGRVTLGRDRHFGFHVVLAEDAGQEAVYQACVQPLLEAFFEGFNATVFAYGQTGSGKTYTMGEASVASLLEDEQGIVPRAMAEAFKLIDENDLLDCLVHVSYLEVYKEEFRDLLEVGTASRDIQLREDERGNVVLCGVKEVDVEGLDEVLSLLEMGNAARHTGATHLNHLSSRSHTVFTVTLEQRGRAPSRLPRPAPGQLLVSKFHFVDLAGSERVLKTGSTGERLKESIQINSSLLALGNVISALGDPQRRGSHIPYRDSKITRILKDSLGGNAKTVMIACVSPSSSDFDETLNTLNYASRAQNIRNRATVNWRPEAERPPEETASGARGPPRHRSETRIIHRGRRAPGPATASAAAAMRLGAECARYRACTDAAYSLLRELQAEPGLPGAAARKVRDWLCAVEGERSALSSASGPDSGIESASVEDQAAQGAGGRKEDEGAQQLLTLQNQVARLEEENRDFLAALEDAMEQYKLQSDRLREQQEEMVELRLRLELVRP
Protocol: For grid preparation, all Kif7-GIi2 preparations were diluted using BRB80 (80 mM 1,4-piperazinediethanesulfonic acid [PIPES], pH 6.8, 1 mM MgCl₂, 1 mM ethylene glycol tetraacetic acid [EGTA]). Porcine brain microtubules were prepared from frozen aliquots of 5 mg/ml tubulin (Cytoskeleton, Denver, CO) in polymerization buffer (BRB80; 80 mM PIPES, pH 6.8, 1 mM EGTA, 2 mM MgCl₂, 3 mM GMP-CPP, 10% dimethyl sulfoxide (DMSO)) at 37° C. for 2-3 hours. The polymerized microtubules were then incubated at room temperature for several hours or overnight before use. The following day or several hours later the microtubules were spun down on a bench top centrifuge 14.00 RPM 10 min to pellet. The pellet was resuspended in polymerization buffer without DMSO. The Kif7 dimer and monomer preparations were made by mixing the Kif7 with the GIi2 or GIi2-SNAP for 1 hour prior to incubation with the microtubules. Kif7-dimer (0.36 mg/ml) plus GIi2 (0.2 mg/ml) in BRB plus 2 mM ADP, 2 mM MgcI2, Kif7-monomer (0.45 mg/mL) or Kif7 dimer plus GIi2_SNAP (0.30 mg/mL) plus BRB80 with 1 mM AMPPNP and 1 mM MgCl₂. All microtubule samples were prepared on 1.2/1.3 400-mesh grids (Electron Microscopy Services) Grids were glow-discharged before sample application. The cryo-samples were prepared using a manual plunger, which was placed in a homemade humidity chamber that varied between 80 and 90% relative humidity. […]

Kif27-DM-GFP (1-580aa) = target: T4, Kif27-DM-GFP (1-580aa) (human, UniProt Q86VH2 1-580); test: TIRF microscopy on microtubules; 100 nM Gli2-ZF-SNAP-Alexa647 with 100 nM kinesin
T4 construct: range 1-580; Called dimeric; not shown: GFP tag, C-terminal by the name
T4 sequence (looked up): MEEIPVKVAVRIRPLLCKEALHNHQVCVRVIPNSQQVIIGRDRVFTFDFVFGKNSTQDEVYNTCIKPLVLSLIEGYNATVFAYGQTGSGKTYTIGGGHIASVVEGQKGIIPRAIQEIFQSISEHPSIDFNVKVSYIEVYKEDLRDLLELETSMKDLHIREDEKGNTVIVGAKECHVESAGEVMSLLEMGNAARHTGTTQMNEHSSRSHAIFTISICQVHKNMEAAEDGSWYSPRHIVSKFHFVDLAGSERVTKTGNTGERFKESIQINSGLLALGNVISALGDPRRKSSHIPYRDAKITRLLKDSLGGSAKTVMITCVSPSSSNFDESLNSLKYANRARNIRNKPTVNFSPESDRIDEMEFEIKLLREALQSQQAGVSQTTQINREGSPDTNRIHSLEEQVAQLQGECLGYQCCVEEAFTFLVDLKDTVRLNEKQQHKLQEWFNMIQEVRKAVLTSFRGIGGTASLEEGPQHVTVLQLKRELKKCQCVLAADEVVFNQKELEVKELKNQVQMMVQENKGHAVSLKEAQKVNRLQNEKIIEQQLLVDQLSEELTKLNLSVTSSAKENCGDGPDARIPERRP

B1: c-Myc-Gli2 (1-594aa) (other, human, UniProt P10070 1-594, looked up)
chain: METSASATASEKQEAKSGILEAAGFPDPGKKASPLVVAAAAAAAVAAQGVPQHLLPPFHAPLPIDMRHQEGRYHYEPHSVHGVHGPPALSGSPVISDISLIRLSPHPAGPGESPFNAPHPYVNPHMEHYLRSVHSSPTLSMISAARGLSPADVAQEHLKERGLFGLPAPGTTPSDYYHQMTLVAGHPAPYGDLLMQSGGAASAPHLHDYLNPVDVSRFSSPRVTPRLSRKRALSISPLSDASLDLQRMIRTSPNSLVAYINNSRSSSAASGSYGHLSAGALSPAFTFPHPINPVAYQQILSQQRGLGSAFGHTPPLIQPSPTFLAQQPMALTSINATPTQLSSSSNCLSDTNQNKQSSESAVSSTVNPVAIHKRSKVKTEPEGLRPASPLALTQGQVSGHGSCGCALPLSQEQLADLKEDLDRDDCKQEAEVVIYETNCHWEDCTKEYDTQEQLVHHINNEHIHGEKKEFVCRWQACTREQKPFKAQYMLVVHMRRHTGEKPHKCTFEGCSKAYSRLENLKTHLRSHTGEKPYVCEHEGCNKAFSNASDRAKHQNRTHSNEKPYICKIPGCTKRYTDPSSLRKHVKTVHGPDAH
notes: Expressed in Expi293F cells for the pull-down; also called N-terminal half of Gli2; not shown: c-myc tag from pCMV-BICEP-4 (MCS2), N-terminal by the name
Question: Does B1 bind (FLAG-Kif7 (544-1343aa))?
Answer: Result: no binding

B2: FLAG-Kif7 (1-543aa) (other)
chain: T3 sequence
notes: Expressed in Expi293F cells for the pull-down; also called N-terminal half of Kif7; Kif7-DM; not shown: FLAG tag from pCMV-BICEP-4 (MCS1), N-terminal by the name
Question: Does B2 bind (c-Myc-Gli2 (595-1568aa))?
Answer: Result: no binding

B3: Gli2-ZF-SNAP (other, human, UniProt P10070 418-604, looked up)
chain: KEDLDRDDCKQEAEVVIYETNCHWEDCTKEYDTQEQLVHHINNEHIHGEKKEFVCRWQACTREQKPFKAQYMLVVHMRRHTGEKPHKCTFEGCSKAYSRLENLKTHLRSHTGEKPYVCEHEGCNKAFSNASDRAKHQNRTHSNEKPYICKIPGCTKRYTDPSSLRKHVKTVHGPDAHVTKKQRNDVH
modifications: Alexa 647 dye on the SNAP tag in the TIRF assays
notes: Labeled with Alexa 647 for TIRF microscopy; used unlabeled (as far as told) for cryo-EM; also called Gli2-ZF-SNAP-Alexa 647; Gli2-ZF-Alexa 647; not shown: C-terminal SNAP tag
Question: What does the source list for B3?
Answer: binding result (Kif7-DM (1-543aa)): binds; binding result (Kif27-DM-GFP (1-580aa)): no binding
